Laboratory results taken from patent US20240294650A1 (Alector, published 2024).

T1: Full Axl (ECD domain of human Axl) (human, UniProt P30530 26-451)
T1 construct: also called human Axl ECD
T1 sequence: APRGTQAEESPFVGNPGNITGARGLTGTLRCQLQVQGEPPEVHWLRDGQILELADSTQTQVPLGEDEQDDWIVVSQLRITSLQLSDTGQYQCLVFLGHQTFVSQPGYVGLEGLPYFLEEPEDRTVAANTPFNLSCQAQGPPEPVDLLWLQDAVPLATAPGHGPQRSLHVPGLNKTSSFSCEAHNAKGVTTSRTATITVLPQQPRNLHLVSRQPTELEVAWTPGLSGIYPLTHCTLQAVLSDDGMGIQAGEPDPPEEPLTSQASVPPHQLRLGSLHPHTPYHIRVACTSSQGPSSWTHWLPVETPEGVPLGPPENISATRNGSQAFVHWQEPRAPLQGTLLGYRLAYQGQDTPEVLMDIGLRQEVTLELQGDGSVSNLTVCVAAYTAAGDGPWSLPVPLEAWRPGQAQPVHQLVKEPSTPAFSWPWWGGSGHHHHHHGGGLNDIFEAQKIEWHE

T2: recombinant murine MerTK extracellular domain (mouse, UniProt Q60805 19-497)
T2 construct: also called Mouse MerTK; murine MerTK ECD; not shown: polyHis or TEVS/Thrombin/murine IgG2a-Fc tag
T2 sequence: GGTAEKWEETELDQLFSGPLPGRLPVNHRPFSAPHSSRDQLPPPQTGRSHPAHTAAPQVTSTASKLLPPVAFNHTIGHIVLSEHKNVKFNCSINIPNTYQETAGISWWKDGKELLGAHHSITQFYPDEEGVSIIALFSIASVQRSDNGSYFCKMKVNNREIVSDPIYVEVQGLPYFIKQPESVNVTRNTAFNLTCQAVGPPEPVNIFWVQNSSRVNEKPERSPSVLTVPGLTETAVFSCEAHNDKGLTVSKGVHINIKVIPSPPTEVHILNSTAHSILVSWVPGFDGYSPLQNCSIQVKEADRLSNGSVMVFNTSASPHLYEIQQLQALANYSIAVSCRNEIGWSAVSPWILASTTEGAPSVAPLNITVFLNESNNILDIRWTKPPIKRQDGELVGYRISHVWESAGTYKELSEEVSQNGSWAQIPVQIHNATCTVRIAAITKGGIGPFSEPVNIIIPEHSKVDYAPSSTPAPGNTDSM

T3: MerTK N-terminal ECD Half-and-half chimera (human)
T3 construct: tested as culture supernatant; also called MerTK N-term half-and-half chimera; MerTK N-terminal ECD (NT-Ig1-Ig2) + Axl C-terminal ECD (FN1-FN2-JM)
T3 chain: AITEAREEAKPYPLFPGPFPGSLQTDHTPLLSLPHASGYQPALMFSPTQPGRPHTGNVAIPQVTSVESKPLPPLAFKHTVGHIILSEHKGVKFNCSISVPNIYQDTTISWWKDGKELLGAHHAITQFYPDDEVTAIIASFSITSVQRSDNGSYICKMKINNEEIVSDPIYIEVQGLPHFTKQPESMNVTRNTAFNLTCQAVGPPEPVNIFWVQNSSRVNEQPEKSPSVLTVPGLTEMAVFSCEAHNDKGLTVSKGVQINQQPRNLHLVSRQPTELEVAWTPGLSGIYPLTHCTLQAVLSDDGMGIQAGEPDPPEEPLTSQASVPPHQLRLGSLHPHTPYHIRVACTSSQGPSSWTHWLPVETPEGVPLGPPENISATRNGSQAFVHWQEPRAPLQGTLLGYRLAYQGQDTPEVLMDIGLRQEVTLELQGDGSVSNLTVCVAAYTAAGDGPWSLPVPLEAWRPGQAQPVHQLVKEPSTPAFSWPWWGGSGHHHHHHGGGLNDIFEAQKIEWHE

T4: endogenous murine MerTK on bone marrow-derived macrophages (mouse, UniProt Q60805 19-994)
T4 construct: whole, on cells; MFI on MerTK KO BMDM subtracted; also called BMDM WT-KO
T4 sequence (looked up): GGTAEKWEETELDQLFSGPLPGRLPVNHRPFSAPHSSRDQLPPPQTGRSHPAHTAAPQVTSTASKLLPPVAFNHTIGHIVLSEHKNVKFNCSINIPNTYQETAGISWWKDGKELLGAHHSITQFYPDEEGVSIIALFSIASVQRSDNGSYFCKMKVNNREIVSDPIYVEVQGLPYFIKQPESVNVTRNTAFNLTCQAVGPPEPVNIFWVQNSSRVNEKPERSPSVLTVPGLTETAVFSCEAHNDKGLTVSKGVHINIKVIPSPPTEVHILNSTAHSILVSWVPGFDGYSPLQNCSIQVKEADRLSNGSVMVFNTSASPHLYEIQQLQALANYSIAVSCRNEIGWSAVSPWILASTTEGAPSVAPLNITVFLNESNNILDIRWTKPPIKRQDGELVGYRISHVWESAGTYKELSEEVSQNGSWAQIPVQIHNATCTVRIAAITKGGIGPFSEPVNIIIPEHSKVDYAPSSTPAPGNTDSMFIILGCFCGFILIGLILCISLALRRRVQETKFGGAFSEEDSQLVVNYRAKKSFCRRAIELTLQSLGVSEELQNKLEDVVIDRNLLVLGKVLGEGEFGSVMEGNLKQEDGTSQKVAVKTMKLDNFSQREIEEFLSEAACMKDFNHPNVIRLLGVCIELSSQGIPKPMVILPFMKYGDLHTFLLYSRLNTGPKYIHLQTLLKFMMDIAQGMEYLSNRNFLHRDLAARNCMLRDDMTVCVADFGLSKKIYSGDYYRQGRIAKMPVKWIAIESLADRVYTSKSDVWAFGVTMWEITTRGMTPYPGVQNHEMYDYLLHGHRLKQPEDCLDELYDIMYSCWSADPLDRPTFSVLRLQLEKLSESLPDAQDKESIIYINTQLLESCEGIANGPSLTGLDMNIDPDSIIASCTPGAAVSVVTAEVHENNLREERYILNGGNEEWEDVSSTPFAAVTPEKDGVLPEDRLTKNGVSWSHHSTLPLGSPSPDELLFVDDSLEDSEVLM

T5: mouse MerTK overexpressed on CHO cells (mouse, UniProt Q60805 19-994)
T5 construct: whole, on cells; also called CHO-muMerTK OE
T5 sequence (looked up): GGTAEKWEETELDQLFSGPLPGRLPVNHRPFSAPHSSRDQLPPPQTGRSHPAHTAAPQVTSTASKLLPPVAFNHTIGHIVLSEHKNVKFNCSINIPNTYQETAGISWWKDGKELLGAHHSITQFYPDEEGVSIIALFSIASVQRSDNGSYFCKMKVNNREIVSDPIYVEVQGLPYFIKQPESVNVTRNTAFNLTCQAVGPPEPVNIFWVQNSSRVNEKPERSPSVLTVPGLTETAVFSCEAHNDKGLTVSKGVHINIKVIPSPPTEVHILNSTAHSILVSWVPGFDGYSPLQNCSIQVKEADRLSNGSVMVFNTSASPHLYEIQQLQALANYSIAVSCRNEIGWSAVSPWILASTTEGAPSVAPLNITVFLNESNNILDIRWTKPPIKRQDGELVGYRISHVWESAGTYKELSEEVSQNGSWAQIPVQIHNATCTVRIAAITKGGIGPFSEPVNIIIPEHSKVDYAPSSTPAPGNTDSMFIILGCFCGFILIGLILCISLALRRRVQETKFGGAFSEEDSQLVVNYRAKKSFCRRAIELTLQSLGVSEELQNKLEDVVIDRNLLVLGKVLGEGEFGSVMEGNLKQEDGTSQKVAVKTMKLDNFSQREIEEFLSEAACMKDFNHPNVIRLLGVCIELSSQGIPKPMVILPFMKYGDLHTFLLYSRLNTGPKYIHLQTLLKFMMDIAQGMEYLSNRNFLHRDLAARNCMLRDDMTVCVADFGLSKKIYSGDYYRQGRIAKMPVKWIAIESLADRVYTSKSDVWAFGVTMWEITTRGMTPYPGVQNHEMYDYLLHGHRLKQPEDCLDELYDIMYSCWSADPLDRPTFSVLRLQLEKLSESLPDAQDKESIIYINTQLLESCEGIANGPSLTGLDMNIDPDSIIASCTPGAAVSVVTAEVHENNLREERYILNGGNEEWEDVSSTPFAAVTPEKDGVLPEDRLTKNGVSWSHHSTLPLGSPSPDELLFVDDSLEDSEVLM


Key:
[1] = biological target: T1, Full Axl (ECD domain of human Axl); assay: SPR (data not shown)
Description: (§1) Binding of anti-MerTK antibodies of the present disclosure to these domain-swapped chimera or deletion mutants was tested by Surface Plasmon Resonance (SPR) using Carterra LSA. Purified anti-MerTK antibodies were immobilized in duplicate on a HC30M chip (Carterra) by amine coupling, following the manufacturer's instructions (described previously).
(§2) Supernatants containing the constructs were diluted 1:1 with running buffer containing 0.5 mg/mL BSA (HBS-TE, Carterra; BSA, Sigma) and injected over the immobilized antibodies. The surface was regenerated with 10 mM Glycine pH2.0 after each construct injection. Sensorgrams were analyzed using Carterra Epitope software to identify patterns of construct binding. Loss of binding to MerTK constructs with domains deleted or swapped in from Axl and/or gain of binding to Axl constructs with MerTK domains swapped in were evaluated. Data from these studies were used to construct a domain binding map for anti-MerTK antibodies and their binding to various domains of human MerTK.

[2] = biological target: T2, recombinant murine MerTK extracellular …; assay: SPR Carterra LSA, Ab immobilised
Description: Binding kinetics of anti-MerTK IgG1 antibodies of the present disclosure to human, cyno, and murine MerTK were evaluated using a Carterra LSA instrument (Carterra, Salt Lake City, UT). […] A HC200M sensor chip (Carterra) was activated using the single channel flow cell with a 7-minute injection of a 1:1:1 mixture of 100 mM MES pH 5.5, 100 mM sulfo-NHS, 400 mM EDC (all reconstituted in MES pH 5.5; 100 μl of each mixed in vial immediately before running assay). After switching to the multi-channel array flow cell, the antibodies were injected over the activated chip in three 96-spot arrays for 10 minutes each. The remaining unconjugated active groups on the chip were then blocked by injecting 1M Ethanolamine pH 8.5 (Carterra) for 7 minutes using the single channel flow cell. The resulting sensor chip contained three spots for each antibody, at three different densities. Two independent experiments were performed as follows, resulting in an N of between one and six determinations for each antibody. Spots that yielded less than 25 RU of analyte binding were excluded from further analysis.
After priming with running buffer (HBS-TE, Carterra) with 0.5 mg/ml BSA (Sigma), the immobilized anti-MerTK antibodies were tested for their ability to bind to several forms of recombinant MerTK extracellular domain, including human, cynomolgus, and mouse orthologs as described above. Estimates of affinity were generated by injecting each analyte over the entire antibody array using the single channel flow cell. MerTK analytes were diluted with running buffer, in a series of six, three-fold serial dilutions starting from 1 μM for human and cynomolgus MerTK, and 600 nM for mouse MerTK. Analytes were injected for 5 minutes, and dissociation was followed for 10 minutes. After each analyte injection, antibodies were regenerated with either Protein A/G Elution Buffer (Thermo) with 1M NaCl (Teknova), or with 10 mM Glycine pH 2.5. Three buffer blanks were run between each series (one species per series). Data were processed and analyzed using NextGenKIT high-throughput kinetics analysis software (Carterra).

[3] = biological target: T3, MerTK N-terminal ECD Half-and-half …; assay: SPR, construct supernatant over immobilised Ab
Description: as §1, §2

[4] = biological target: T4, endogenous murine MerTK on bone …; assay: FACS, mouse BMDM, WT minus MerTK KO
Description: (§3) To determine whether recombinant anti-human MerTK antibodies of the present disclosure bind to human MerTK endogenously expressed on SK-MEL-5 cells and CHO cells overexpressing mouse MerTK (CHO-muMerTK OE cells), as compared to A375 and parental CHO cells as negative controls, the following experiments were performed. SK-MEL-5 cells, A375 cells, CHO-muMerTK OE cells, and CHO parental cells were plated at 100,000 cells/well. Anti-MerTK antibodies were added to the cells at 10 μg/ml. After 60 minutes on ice, cells were washed and then stained with PE-conjugated goat anti-human IgG antibody (Southern Biotech Cat #2040-09, Birmingham, AL) in the presence of Fc block solution on ice for 30 minutes, and then washed twice with cold FACS buffer (2% FBS in PBS). Mouse anti-human MerTK-PE conjugated (Biolegend, Clone 590H11G1E3) or anti-mouse MerTK-PE conjugated (ThermoFisher, Clone DS5MMER) antibodies were used as positive controls. Stained cells were acquired on a BD FACS Canto II cytometer and the mean fluorescence intensity (MFI) was calculated with FlowJo.
To confirm anti-MerTK antibody binding to endogenous murine MerTK, bone marrow-derived macrophages (BMDM) were isolated from MerTK wild type (WT) and knockout (KO) mice (The Jackson Laboratory, Cat #011122) using standard protocols. Briefly, cells isolated from the bone marrow were plated in the presence of 50 ng/ml M-CSF (R&D Systems, Cat #416-ML) for seven days to allow for differentiation into macrophages. Cell staining, FACs, and MFI were performed and calculated as described above.

[5] = biological target: T5, mouse MerTK overexpressed on CHO cells; assay: FACS, CHO-muMerTK OE cells, 10 ug/ml
Description: as §3

binding result [1] | binding result [3] | MFI [4] [MFI] | MFI [5] [MFI] | Binder | binding result [2]
no binding | no binding | – | – | MTK-217 (antibody, human IgG1, V domains shown) VH: QVQLQQPGTEVVKPGASVKMSCRASGYTFTSYWITWVKQRPGQGLEWIGDIHPGSGINNYNEKFRSKATLTVDTSSSTVYMELSSLTSEDSAVYYCAKGGYYGSSYYVMDYWGQGTSVTVSS VL: DILLTQSPAILSVSPGERVSFSCRASQTIGTSIHWYQQRTNDSPRLLIKYASESISGIPSRFSGSGSGTDFTLSINSVESEDIADYYCQQSNDWPYTFGGGTKLEIK | no binding (tested: analyte up to 600 nM)
no binding | no binding | 737 | 240 | MTK-205 (antibody, human IgG1, V domains shown) VH: EVQLQQSGPELVKPGASVKISCKTSGYTFTEYIMHWVKQSHGKSLEWIGGINPNNLGIIYNQKFKGKATLTVDKSSSTAYMELRSLTSEDSEVYYCARDGYFGFDYWGQGTTLKVSS VL: DIVMTQSHKFMSTSVGDRVSITCKASQDVGTSVAWYQQKPGHSPKLLIYWTSTRRTGVPDRFTGSGSGTDFTLTISNVQSEDLADYFCHQYNSYPLTFGAGTKLELK | –
